Results taken from the supplement of paper PMC9112550, “Optimization of the antimicrobial peptide Bac7 by deep mutational scanning” (BMC Biology, 2022).

System: Escherichia coli TOP10
Assay: shrunken log2 fold change of peptide-encoding DNA abundance (4.5 h post-induction vs induction); higher = less antimicrobial activity (less host growth inhibition)
Conditions: time post-induction: 4.5 h; library: site-saturation at positions 5, 18, 19, 20
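Also: peptides expressed intracellularly from a pBAD plasmid library in pooled LB shake-flask culture, induced with 0.3% L-arabinose, DNA abundance read by NGS, three biological replicates, DESeq2 with apeglm shrinkage.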

Sequence	shrunken log2 fold change
RRIRRRPPRLPRPRPRPNDVPRP	-0.0736
RRIRHRPPRLPRPRPRPWNCPRP	-0.366
RRIRNRPPRLPRPRPRPAFHPRP	-0.436
RRIRVRPPRLPRPRPRPQDRPRP	0.0443
RRIRPRPPRLPRPRPRPNPDPRP	0.0105
RRIRHRPPRLPRPRPRPNFGPRP	0.00709
RRIRIRPPRLPRPRPRPLIDPRP	-0.42
RRIRNRPPRLPRPRPRPWMPPRP	-0.105
RRIRERPPRLPRPRPRPQSHPRP	-0.268
RRIRARPPRLPRPRPRPIRMPRP	0.183
RRIRSRPPRLPRPRPRPVIHPRP	-0.127
RRIRNRPPRLPRPRPRPYETPRP	-0.0276
RRIRRRPPRLPRPRPRPCRIPRP	-0.0873
RRIRKRPPRLPRPRPRPYVLPRP	-0.234
RRIRHRPPRLPRPRPRPVGSPRP	0.145
RRIRYRPPRLPRPRPRPSGGPRP	-0.519
RRIRARPPRLPRPRPRPVFKPRP	0.115
RRIRRRPPRLPRPRPRPRFSPRP	0.425
RRIRRRPPRLPRPRPRPHIHPRP	-0.674
RRIRYRPPRLPRPRPRPTTNPRP	-0.837
RRIRTRPPRLPRPRPRPDGDPRP	0.052
RRIRLRPPRLPRPRPRPPYIPRP	-0.081
RRIRYRPPRLPRPRPRPHWWPRP	-0.0763
RRIRTRPPRLPRPRPRPDRHPRP	-0.143
RRIRPRPPRLPRPRPRPLQFPRP	-0.178

Sequence	shrunken log2 fold change
RRIRGRPPRLPRPRPRPAAWPRP	0.936
RRIRQRPPRLPRPRPRPFLLPRP	-0.165
RRIRMRPPRLPRPRPRPILYPRP	-0.0871
RRIRKRPPRLPRPRPRPSRDPRP	0.0856
RRIRGRPPRLPRPRPRPQFCPRP	0.719
RRIRSRPPRLPRPRPRPEACPRP	1.03
RRIRCRPPRLPRPRPRPIVDPRP	0.0181
RRIRLRPPRLPRPRPRPIDNPRP	-0.421
RRIRHRPPRLPRPRPRPCNNPRP	-0.188
RRIRIRPPRLPRPRPRPWGTPRP	-0.859
RRIRARPPRLPRPRPRPMMAPRP	0.466
RRIRDRPPRLPRPRPRPMSVPRP	-0.00308
RRIRGRPPRLPRPRPRPITGPRP	0.064
RRIRWRPPRLPRPRPRPIQIPRP	-0.378
RRIRWRPPRLPRPRPRPHQVPRP	-0.145
RRIRPRPPRLPRPRPRPRWYPRP	-0.0594
RRIRARPPRLPRPRPRPTEFPRP	0.368
RRIRFRPPRLPRPRPRPEHLPRP	-0.223
RRIRDRPPRLPRPRPRPDTIPRP	-0.0164
RRIRPRPPRLPRPRPRPEWKPRP	-0.00168
RRIRQRPPRLPRPRPRPLMIPRP	-0.0458
RRIRLRPPRLPRPRPRPCPFPRP	-0.353
RRIRNRPPRLPRPRPRPWTDPRP	0.0246
RRIRTRPPRLPRPRPRPKWDPRP	-0.0626
RRIRVRPPRLPRPRPRPLGEPRP	-0.162
